According to patent US20240043504A1 (published 2024):

T1: MERS-CoV Spike Protein (ECD, aa 1-1297, His Tag) (Sino 40069-[change]) (MERS-CoV, UniProt K9N5Q8 18-1297)
T1 sequence: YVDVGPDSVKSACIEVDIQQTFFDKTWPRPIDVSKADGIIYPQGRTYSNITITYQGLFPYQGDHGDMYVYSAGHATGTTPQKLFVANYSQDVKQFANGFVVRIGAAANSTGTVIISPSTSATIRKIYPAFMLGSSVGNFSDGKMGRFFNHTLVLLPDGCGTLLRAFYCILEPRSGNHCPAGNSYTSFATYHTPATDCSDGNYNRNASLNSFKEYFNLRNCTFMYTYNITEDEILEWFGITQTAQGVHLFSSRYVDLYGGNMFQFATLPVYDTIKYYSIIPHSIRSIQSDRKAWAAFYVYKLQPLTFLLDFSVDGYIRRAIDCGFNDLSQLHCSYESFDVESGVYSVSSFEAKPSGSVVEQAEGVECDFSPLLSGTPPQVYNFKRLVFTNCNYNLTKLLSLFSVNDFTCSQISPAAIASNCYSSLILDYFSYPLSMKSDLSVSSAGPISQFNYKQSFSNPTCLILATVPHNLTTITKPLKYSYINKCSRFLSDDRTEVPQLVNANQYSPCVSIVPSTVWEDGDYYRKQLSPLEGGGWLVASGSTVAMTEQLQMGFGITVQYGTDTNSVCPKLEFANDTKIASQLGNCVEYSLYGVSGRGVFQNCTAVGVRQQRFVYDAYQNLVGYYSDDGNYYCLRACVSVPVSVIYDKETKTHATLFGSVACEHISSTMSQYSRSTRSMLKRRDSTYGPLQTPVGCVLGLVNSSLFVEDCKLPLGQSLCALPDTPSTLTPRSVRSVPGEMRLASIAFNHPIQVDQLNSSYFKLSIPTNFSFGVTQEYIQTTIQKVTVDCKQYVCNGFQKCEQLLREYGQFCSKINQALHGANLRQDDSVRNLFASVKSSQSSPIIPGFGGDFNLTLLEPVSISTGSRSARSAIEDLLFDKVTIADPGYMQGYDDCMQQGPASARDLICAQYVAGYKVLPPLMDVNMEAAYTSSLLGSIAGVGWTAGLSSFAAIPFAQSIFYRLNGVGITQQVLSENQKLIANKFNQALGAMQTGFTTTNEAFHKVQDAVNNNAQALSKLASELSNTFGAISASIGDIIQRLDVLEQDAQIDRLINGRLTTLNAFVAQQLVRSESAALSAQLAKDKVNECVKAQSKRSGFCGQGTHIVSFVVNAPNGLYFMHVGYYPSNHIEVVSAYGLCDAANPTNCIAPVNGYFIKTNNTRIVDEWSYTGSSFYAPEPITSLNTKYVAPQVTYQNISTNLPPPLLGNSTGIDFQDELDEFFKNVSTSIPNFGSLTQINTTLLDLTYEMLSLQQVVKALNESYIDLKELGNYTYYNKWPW

T2: MERS-CoV (NCoV/Novel coronavirus) Spike Protein S1 Protein (aa 1-725, His Tag) (Sino 40069-V08B1) (MERS-CoV, UniProt K9N5Q8 18-725)
T2 sequence: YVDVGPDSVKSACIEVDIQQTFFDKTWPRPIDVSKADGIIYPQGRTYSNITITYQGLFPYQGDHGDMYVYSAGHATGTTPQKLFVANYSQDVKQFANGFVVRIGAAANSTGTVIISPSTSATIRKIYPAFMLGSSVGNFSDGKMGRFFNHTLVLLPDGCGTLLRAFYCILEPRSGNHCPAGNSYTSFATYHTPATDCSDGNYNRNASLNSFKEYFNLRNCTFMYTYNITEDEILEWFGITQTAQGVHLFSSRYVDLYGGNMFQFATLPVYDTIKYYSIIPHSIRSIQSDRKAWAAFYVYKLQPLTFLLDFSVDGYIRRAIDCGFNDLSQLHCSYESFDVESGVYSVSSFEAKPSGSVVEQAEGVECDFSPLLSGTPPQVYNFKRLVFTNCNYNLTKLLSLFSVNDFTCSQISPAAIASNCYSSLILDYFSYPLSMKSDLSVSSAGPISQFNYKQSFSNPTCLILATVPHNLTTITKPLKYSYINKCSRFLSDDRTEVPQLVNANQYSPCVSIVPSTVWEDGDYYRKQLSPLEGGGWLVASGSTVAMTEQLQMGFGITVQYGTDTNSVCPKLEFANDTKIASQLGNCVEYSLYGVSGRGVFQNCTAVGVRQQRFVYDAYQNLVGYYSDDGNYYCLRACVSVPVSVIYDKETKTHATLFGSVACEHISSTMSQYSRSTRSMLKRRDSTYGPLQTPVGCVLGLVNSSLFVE

T3: MERS-CoV Spike Protein S2 (aa 726-1296, His Tag) (Sino 40070-[change]) (MERS-CoV, UniProt K9N5Q8 726-1296)
T3 sequence: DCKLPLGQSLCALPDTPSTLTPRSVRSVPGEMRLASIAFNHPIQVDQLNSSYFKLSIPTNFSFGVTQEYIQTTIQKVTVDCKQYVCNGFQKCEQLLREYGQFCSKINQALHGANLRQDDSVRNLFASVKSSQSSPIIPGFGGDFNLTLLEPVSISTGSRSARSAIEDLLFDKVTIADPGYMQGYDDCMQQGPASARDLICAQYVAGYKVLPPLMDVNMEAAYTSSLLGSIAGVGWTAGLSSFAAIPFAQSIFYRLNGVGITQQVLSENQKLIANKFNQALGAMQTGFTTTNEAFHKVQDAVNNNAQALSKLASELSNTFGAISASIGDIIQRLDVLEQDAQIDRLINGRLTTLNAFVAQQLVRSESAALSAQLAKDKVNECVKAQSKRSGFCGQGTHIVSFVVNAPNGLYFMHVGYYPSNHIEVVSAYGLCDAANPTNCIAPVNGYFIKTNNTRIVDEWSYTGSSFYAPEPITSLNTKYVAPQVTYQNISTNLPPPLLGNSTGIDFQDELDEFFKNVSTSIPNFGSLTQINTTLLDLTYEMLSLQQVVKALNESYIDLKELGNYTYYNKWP

T4: MERS-CoV (NCoV/Novel coronavirus) Spike Protein fragment (RBD, aa 367-606, His Tag) (Sino 40071-V08B1) (MERS-CoV, UniProt K9N5Q8 367-606)
T4 sequence: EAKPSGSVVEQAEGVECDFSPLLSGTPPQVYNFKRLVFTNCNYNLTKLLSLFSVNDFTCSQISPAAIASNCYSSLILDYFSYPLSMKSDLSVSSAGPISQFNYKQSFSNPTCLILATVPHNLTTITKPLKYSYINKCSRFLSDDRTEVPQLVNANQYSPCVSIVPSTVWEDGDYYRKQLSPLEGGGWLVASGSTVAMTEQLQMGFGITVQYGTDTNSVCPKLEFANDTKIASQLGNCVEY

B1: mAb10967 (antibody, V domains shown)
VH: EVQLVESGGGLVQPGGSLRLSCAASGFTVSSNYMSWVRQAPGKGLEWVSVIYPGGSTFYADSVKGRFTISRDNSKNTLYLQMNSLRAEDTAVYYCARDQRDFAWGQGTLVTVSS
VL: DIQMTQSPSSLSASVGDRVTITCQASQDISNYLNWYQQKPGKAPKLLIYDASNLETGVPSRFSGSGSGTDFTFTISGLQPEDIATYYCQQYDNLPPTFGQGTRLEIKR
B2: mAb10954 (antibody, V domains shown)
VH: EVQLVESGGGLVQPGGSLRLSCAASGITVSSNYMSWVRQAPGKGLEWVSLIYSGGSTYYADSVKGRFTISRDNSKNTLYLQMNSLRVEDTAVYYCARDHGMAAAGYNYWGQGTLVTVSS
VL: DIQMTQSPSSLSASVGDRVTITCQASQDINKYLNWYQQKPGKAPKLLIYDASNLETGVPSRFSGSGSGTDFTFTINSLQPEDFATYFCQQYDNLPPAFGQGTKVEIKR
B3: mAb10938 (antibody, V domains shown)
VH: EVQLVESGGGLVQPGGSLRLSCAVSGFTVSSNYMSWVRQAPGKGLEWVSLIYSGGSTFYADSVKGRFTISRHNSKNTLYLQMNSLRAEDTAVYYCAREGGYSYDYNYWGQGTLVTVSS
VL: DIQMTQSPSSLSASVGDRVTITCQASQDIRNYLNWYQQKPGKAPKLLIYDASNLETGVPSRFSGIGSGTDFTFTISSLQPEDIATYYCQQYDNLPITFGQGTRLEIKR
B4: mAb10984 (antibody, V domains shown)
VH: EVQLVESGGGLVQPGGSLRLSCAASGLTVNRNYMSWVRQAPGKGLEWVSLIYSGGSTYYADSVKGRFTISRDNSKNTLYLQMNSLRLEDTAVYYCARGELGIPYGMDVWGQGTTVTVSS
VL: QSVLTQPPSVSAAPGQKVTISCSGSSSNIGNNYVSWYQQLPGTAPKLLIYDNNKRPSGIPDRFSGSKSGTSATLGITGLQTGDEADYYCGTWDSSLSAGVFGGGTKLTVLG
B5: mAb10966 (antibody, V domains shown)
VH: EVQLVESGGGLVQPGGSLRLSCAASGLTVSSNYMSWVRQAPGKGLEWVSVIYSGGSTFYADSVKGRFTISRDNSKNTLYLQMNSLRPEDTAVYYCAREGRIAATGYGMDVWGQGTTVTVSS
VL: not shown
B6: mAb10989 (antibody, V domains shown)
VH: QVQLVQSGAEVKKPGASVKVSCKASGYIFTGYYMHWVRQAPGQGLEWMGWINPNSGGANYAQKFQGRVTLTRDTSITTVYMELSRLRFDDTAVYYCARGSRYDWNQNNWFDPWGQGTLVTVSS
VL: QSALTQPASVSGSPGQSITISCTGTSSDVGTYNYVSWYQQHPGKAPKLMIFDVSNRPSGVSDRFSGSKSGNTASLTISGLQAEDEADYYCSSFTTSSTVVFGGGTKLTVLG
B7: mAb10930 (antibody, V domains shown)
VH: EVQLVESGGGLVQPGRSLRLSCAASGFTFDDYAMYWVRQAPGKGLEWVSGISWNSGSIGYADSVKGRFTISRDNAKNSLYLQMNSLRAADTALYYCAKDKDWNSRGYYYYGMDVWGQGTTVTVSS
VL: not shown
B8: mAb10920 (antibody, V domains shown)
VH: QVQLVESGGGVVQPGRSLRLSCAASGFTFSYYGMHWVRQAPGKGLEWVAVIWYDGSNKFYADSVKGRFTISRDNSKNTLYLQMNSLRAEDTAVYYCAAARPGYYYGMDVWGQGTTVTVSS
VL: DIQMTQSPSSLSASVGDRVTITCRASQGISNYLAWFQQKPGKAPNSLIYAASSLQRGVPSKFSGSGSGTDFTLTISSLQPEDFATYYCQQYNSYPRTFGQGTKVEIKR
B9: mAb10965 (antibody, V domains shown)
VH: EVQLVESGGGLIQPGGSLRLSCAASVFTVSYNYMSWVRQAPGKGLEWVSVIYSGGSTYYADSVKGRFTISRDNSKNTLYLQMNSLRAEDTAVYYCARALPGWGGSFEYFDYWGQGTLVTVSS
VL: not shown
B10: mAb10923 (antibody, V domains shown)
VH: QVQLVQSGAEVKKPGASVKVSCKASGYTFINYYIHWVRQAPGQGLEWMGWINPNSGGTNYAQKFQGRVTMTRDTSISTAYMELSRLRSDDTAVYYCAIITIFGVVTWFDPWGQGTLVTVSS
VL: not shown

Legend:
[1] = biological target: Human SARS Coronavirus Spike S1 Subunit Protein (His Tag) (Sino 40150-V08B1) (Human SARS Coronavirus, UniProt P59594 14-667); experiment: Luminex bead binding, supernatant
[2] = biological target: SARS-CoV-2 Spike Protein (RBD)(R319-F541).hFc (SARS-CoV-2); experiment: Luminex, supernatant
[3] = biological target: T1, MERS-CoV Spike Protein (ECD, aa 1-1297, …); experiment: Luminex, supernatant
[4] = biological target: T2, MERS-CoV (NCoV/Novel coronavirus) Spike …; experiment: Luminex, supernatant
[5] = biological target: Human SARS Coronavirus Spike S1 Subunit Protein (His Tag) (Sino 40150-V08B1) (Human SARS Coronavirus, UniProt P59594 14-667); experiment: Luminex, supernatant
[6] = biological target: T3, MERS-CoV Spike Protein S2 (aa 726-1296, …); experiment: Luminex, supernatant
[7] = biological target: SARS-CoV-2 Spike Protein (RBD)(R319-F541).mFc (SARS-CoV-2); experiment: Luminex, supernatant
[8] = biological target: T4, MERS-CoV (NCoV/Novel coronavirus) Spike …; experiment: Luminex, supernatant

Binder | Binding signal (MFI) [1] [MFI] | MFI [2] [MFI] | MFI [3] [MFI] | MFI [4] [MFI] | MFI [5] [MFI] | MFI [6] [MFI] | MFI [7] [MFI] | MFI [8] [MFI]
B1 | 21 | – | – | – | – | – | – | –
B2 | 15 | – | – | – | – | – | – | –
B3 | – | 29600 | 16 | 20 | 19 | 19 | 30500 | 25
B4 | – | 28400 | 21 | 20 | 22 | 25 | 28400 | 29
B5 | 20 | – | – | – | – | – | – | –
B6 | 21 | – | – | – | – | – | – | –
B7 | – | 28900 | 16 | 22 | 19 | 20 | 28600 | 27
B8 | – | 36800 | 24 | 27 | 26 | 30 | 36400 | 39
B9 | 16 | – | – | – | – | – | – | –
B10 | – | 37800 | 23 | 25 | 29 | 36 | 37400 | 37
